From article PMC11417369, “DNA sequence and chromatin differentiate sequence-specific transcription factor binding in the human malaria parasite Plasmodium falciparum”

T1: AP2-HC AP2 DBD (UniProt Q8IKR9 1320-1370)
T1 sequence: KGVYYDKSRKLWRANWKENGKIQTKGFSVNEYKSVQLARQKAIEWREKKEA

T2: AP2-I_D3 (AP2 domain 3) (UniProt Q8IJW6 775-824)
T2 chain: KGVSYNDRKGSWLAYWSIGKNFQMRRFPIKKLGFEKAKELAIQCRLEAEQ

T3: HDP1 homeodomain-like (Plasmodium falciparum, UniProt Q8IKH4 2990-3078)
T3 sequence: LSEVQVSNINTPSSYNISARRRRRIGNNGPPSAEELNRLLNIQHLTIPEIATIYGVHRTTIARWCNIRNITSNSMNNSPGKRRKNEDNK

T4: AP2-HC D1 (Plasmodium falciparum, UniProt Q8IKR9 1316-1374)
T4 sequence: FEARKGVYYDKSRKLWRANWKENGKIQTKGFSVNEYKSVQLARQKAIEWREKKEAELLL

T5: AP2-LT D1 (Plasmodium falciparum, UniProt Q8IAM1 2520-2577)
T5 sequence: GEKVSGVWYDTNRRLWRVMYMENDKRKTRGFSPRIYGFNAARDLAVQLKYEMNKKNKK

T6: PF3D7_0420300 D1 (Plasmodium falciparum, UniProt Q8I1N6 1956-2015)
T6 sequence: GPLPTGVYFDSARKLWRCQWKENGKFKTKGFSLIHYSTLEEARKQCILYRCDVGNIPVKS

B1: CACACA_site7148 (dsDNA)
DNA 1: CATATTCCCCCCCACACACACACACGCATACATACC
DNA 2: GGTATGTATGCGTGTGTGTGTGTGGGGGGGAATATG
B2: GTGCAC_site10341 (dsDNA)
DNA 1: GATAAAATGAGACCAGTGCATTATTAGTTGTACACC
DNA 2: GGTGTACAACTAATAATGCACTGGTCTCATTTTATC
B3: CACACA_site7194 (dsDNA)
DNA 1: CAAACAAACGAACACACACACACACGCAAAAATGAT
DNA 2: ATCATTTTTGCGTGTGTGTGTGTGTTCGTTTGTTTG
B4: CACACA_negctrl_site1788 (dsDNA)
DNA 1: TTTTATAAAATATAATATAATAATATATGTATAATA
DNA 2: TATTATACATATATTATTATATTATATTTTATAAAA
B5: CACACA_negctrl_site261 (dsDNA)
DNA 1: AACCTAAGCATTCTTCAAATTATATATGTAAAATGA
DNA 2: TCATTTTACATATATAATTTGAAGAATGCTTAGGTT
B6: CACACA_negctrl_site1739 (dsDNA)
DNA 1: ACGATTCAAAGGGAATATAAAATATTATTATCTATA
DNA 2: TATAGATAATAATATTTTATATTCCCTTTGAATCGT
B7: CACACA_site7633 (dsDNA)
DNA 1: TGGGAATAACGACACACACACACACGGATATAAATA
DNA 2: TATTTATATCCGTGTGTGTGTGTGTCGTTATTCCCA
B8: CACACA_negctrl_site640 (dsDNA)
DNA 1: GTATATATATTTCTTTAATAATTAAATTATAAATAT
DNA 2: ATATTTATAATTTAATTATTAAAGAAATATATATAC
B9: CACACA_site2859 (dsDNA)
DNA 1: AAAAAAAAAAAACACACACACACACCCACCCATACA
DNA 2: TGTATGGGTGGGTGTGTGTGTGTGTTTTTTTTTTTT
B10: CACACA_negctrl_site669 (dsDNA)
DNA 1: TAACTTTTATCCTTAATTCATATATAAGATTAAATC
DNA 2: GATTTAATCTTATATATGAATTAAGGATAAAAGTTA
B11: CACACA_negctrl_site1720 (dsDNA)
DNA 1: TTCTCAAAATTAAAATAACAGATTAACGAACTAACG
DNA 2: CGTTAGTTCGTTAATCTGTTATTTTAATTTTGAGAA
B12: CACACA_negctrl_site694 (dsDNA)
DNA 1: TAATTTATTACCATGTAATTATTACGAATATAGGAT
DNA 2: ATCCTATATTCGTAATAATTACATGGTAATAAATTA
B13: CACACA_site2306 (dsDNA)
DNA 1: CCCCCCCACAGACACACACACATACATACCACATAT
DNA 2: ATATGTGGTATGTATGTGTGTGTGTCTGTGGGGGGG
B14: CACACA_site2428 (dsDNA)
DNA 1: TACACAAACAAACACACACACACACCCCCACAAAAA
DNA 2: TTTTTGTGGGGGTGTGTGTGTGTGTTTGTTTGTGTA
B15: CACACA_negctrl_site1292 (dsDNA)
DNA 1: TATATTTAGAATACAATCTTAAAGTTGAAATAAAAT
DNA 2: ATTTTATTTCAACTTTAAGATTGTATTCTAAATATA
B16: CACACA_site8010 (dsDNA)
DNA 1: CACCCCCACAGACACACACACACACCGATATATATA
DNA 2: TATATATATCGGTGTGTGTGTGTGTCTGTGGGGGTG

Biological target: T1, AP2-HC AP2 DBD
Assay: EMSA; 1:1 stoichiometry; EMSA: 1x binding buffer (listed as 100 mM Tris-HCl pH 7.5, 500 mM KCl, 10 mM DTT), 5 mM MgCl2, 25 ng/ul poly dI-dC, 0.05% NP-40, protein in 25% glycerol, 20 min room temperature, 6% PAGE 0.5x TBE
Details: protein: recombinant; tags: N-terminal GST; label: biotin; blunt

Binder | binding result
B1 | binds

Biological target: T2, AP2-I_D3 (AP2 domain 3)
Assay: EMSA; EMSA: 1x binding buffer (listed as 100 mM Tris-HCl pH 7.5, 500 mM KCl, 10 mM DTT), 5 mM MgCl2, 25 ng/ul poly dI-dC, 0.05% NP-40, protein in 25% glycerol, 20 min room temperature, 6% PAGE 0.5x TBE
Details: protein: recombinant; tags: N-terminal GST; label: biotin; blunt

Binder | binding result
B2 | binds

Biological target: T3, HDP1 homeodomain-like
Assay: gcPBM; about 25 ug protein; PBS, 1% milk, 0.2 mg/ml BSA, salmon testes DNA, 0.03% Triton X-100
Details: tags: N-terminal GST (pGEX-4T-1), kept; chain copies: 2; label: surface-attached array probe

Binder | binding signal
B2 | 9.81 ln median PBM intensity, better of two orientations

Biological target: T4, AP2-HC D1
Assay: as above
Details: tags: N-terminal GST (pGEX-4T-1), kept; label: surface-attached array probe

Binder | binding signal
B3 | 11.8 ln median PBM intensity, better of two orientations
B4 | 9.41 ln median PBM intensity, better of two orientations
B5 | 9.41 ln median PBM intensity, better of two orientations
B6 | 9.48 ln median PBM intensity, better of two orientations
B7 | 11.9 ln median PBM intensity, better of two orientations
B8 | 9.37 ln median PBM intensity, better of two orientations
B9 | 11.8 ln median PBM intensity, better of two orientations
B10 | 9.41 ln median PBM intensity, better of two orientations
B11 | 9.4 ln median PBM intensity, better of two orientations
B12 | 9.4 ln median PBM intensity, better of two orientations
B13 | 11.9 ln median PBM intensity, better of two orientations
B14 | 12.1 ln median PBM intensity, better of two orientations
B15 | 9.26 ln median PBM intensity, better of two orientations
B16 | 11.8 ln median PBM intensity, better of two orientations

Biological target: T5, AP2-LT D1
Assay: as above
Details: tags: N-terminal GST (pGEX-4T-1), kept; label: surface-attached array probe

Binder | binding signal
B3 | 10.8 ln median PBM intensity, better of two orientations
B4 | 8.62 ln median PBM intensity, better of two orientations
B5 | 8.81 ln median PBM intensity, better of two orientations
B6 | 8.83 ln median PBM intensity, better of two orientations
B1 | 11 ln median PBM intensity, better of two orientations
B7 | 10.7 ln median PBM intensity, better of two orientations
B8 | 8.59 ln median PBM intensity, better of two orientations
B9 | 10.8 ln median PBM intensity, better of two orientations
B10 | 8.63 ln median PBM intensity, better of two orientations
B11 | 8.7 ln median PBM intensity, better of two orientations
B12 | 8.68 ln median PBM intensity, better of two orientations
B13 | 11 ln median PBM intensity, better of two orientations
B14 | 10.7 ln median PBM intensity, better of two orientations
B15 | 8.65 ln median PBM intensity, better of two orientations
B16 | 10.8 ln median PBM intensity, better of two orientations

Biological target: T6, PF3D7_0420300 D1
Assay: as above
Details: tags: N-terminal GST (pGEX-4T-1), kept; label: surface-attached array probe

Binder | binding signal
B3 | 10.4 ln median PBM intensity, better of two orientations
B1 | 11 ln median PBM intensity, better of two orientations
B7 | 10.4 ln median PBM intensity, better of two orientations
B9 | 10.7 ln median PBM intensity, better of two orientations
B10 | 8.85 ln median PBM intensity, better of two orientations
B13 | 11 ln median PBM intensity, better of two orientations
B14 | 10.5 ln median PBM intensity, better of two orientations
B16 | 10.5 ln median PBM intensity, better of two orientations
